In patent US20230235059A1 (published 2023):
Numbering of substitutions follows the chain as printed.

How the values were obtained:
Test in all cases: SPR
[1] = molecular target: T1, Recombinant cynomolgus monkey PD-1-His (Sino Biological catalog #90311-C08H)
T1 chain: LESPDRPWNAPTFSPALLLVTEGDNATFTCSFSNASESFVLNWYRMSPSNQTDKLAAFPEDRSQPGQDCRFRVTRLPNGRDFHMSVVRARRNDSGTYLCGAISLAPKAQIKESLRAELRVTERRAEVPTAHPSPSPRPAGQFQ

[2] = molecular target: Recombinant human PD-1-His (Sino Biological catalog #10377-H08H-B) (UniProt Q15116 25-167)
[3] = molecular target: T2, Recombinant rhesus monkey PD-1-His (Sino Biological catalog #90305-K08H)
T2 chain: T1 chain with A10P, Q67R, R75Q

Kd [1]: 35.2 nM | Kd [2]: 12.2 nM | Kd [3]: 3.33 nM
B1: HPD-BB9 (antibody, V domains shown)
VH: QVQLVQSGAEVKKPGASVKVSCKASGFRLTTNGISWVRQAPGQGLEWMGWISAGGGPTNYAQKLQGRVTMTTDTSTSTAYMELRSLRSDDTAVYYCAKGLYGTKDAWGQGTLVTVSS
VL: QSVLTQPPSVSEVPGQRVTISCSGGGSNIGSNAVNWYQHFPGKAPKLLIYYNDLLPSGVSDRFSASKSGTSASLAISGLRSEDEADYYCAAWDDNLSAYVFATGTKVTVL
